According to patent US20170209564A1:

Legend:
Settings in all cases: remark: other sources report otherwise
10F9 = assay: ELISA, coated CR6261, P. pastoris medium
11B4 = assay: ELISA, coated CR6261, P. pastoris medium
11F4 = assay: ELISA, coated CR6261, P. pastoris medium
1F2 = assay: ELISA, coated CR6261, P. pastoris medium
29C2 = assay: ELISA, coated CR6261, P. pastoris medium
36D6 = assay: ELISA, coated CR6261, P. pastoris medium
36H2 = assay: ELISA, coated CR6261, P. pastoris medium
51G10 = assay: ELISA, coated CR6261, P. pastoris medium
56D2 = assay: ELISA, coated CR6261, P. pastoris medium
56F4 = assay: ELISA, coated CR6261, P. pastoris medium
56F8 = assay: ELISA, coated CR6261, P. pastoris medium
58A11 = assay: ELISA, coated CR6261, P. pastoris medium
60A2 = assay: ELISA, coated CR6261, P. pastoris medium
63C3 = assay: ELISA, coated CR6261, P. pastoris medium
63D3 = assay: ELISA, coated CR6261, P. pastoris medium
66C8 = assay: ELISA, coated CR6261, P. pastoris medium
6A1 = assay: ELISA, coated CR6261, P. pastoris medium
70F6 = assay: ELISA, coated CR6261, P. pastoris medium
71E7 = assay: ELISA, coated CR6261, P. pastoris medium
74D7 = assay: ELISA, coated CR6261, P. pastoris medium
75E9 = assay: ELISA, coated CR6261, P. pastoris medium
75G5 = assay: ELISA, coated CR6261, P. pastoris medium
75H8 = assay: ELISA, coated CR6261, P. pastoris medium
76A10 = assay: ELISA, coated CR6261, P. pastoris medium
76D10 = assay: ELISA, coated CR6261, P. pastoris medium
79C2 = assay: ELISA, coated CR6261, P. pastoris medium
7D9 = assay: ELISA, coated CR6261, P. pastoris medium
81F11 = assay: ELISA, coated CR6261, P. pastoris medium
84E10 = assay: ELISA, coated CR6261, P. pastoris medium
850 = assay: ELISA, coated CR6261, P. pastoris medium
86F1 = assay: ELISA, coated CR6261, P. pastoris medium
86G2 = assay: ELISA, coated CR6261, P. pastoris medium
86H9 = assay: ELISA, coated CR6261, P. pastoris medium
88C5 = assay: ELISA, coated CR6261, P. pastoris medium
9C10 = assay: ELISA, coated CR6261, P. pastoris medium
9C6 = assay: ELISA, coated CR6261, P. pastoris medium
79F8 = assay: ELISA signal over HTRF expression signal, P. pastoris
84B8 = assay: as above
[1] = target: T1, H1-mini2-cluster1+5+6-GCN4 without leader sequence and with FLAG-thrombin-foldon-HIS; assay: ELISA, coated CR6261, HEK293F medium; average of the parental
[2] = target: T1, H1-mini2-cluster1+5+6-GCN4 without …; assay: ELISA, coated CR6261, P. pastoris medium; average of the parental
[3] = target: T1, H1-mini2-cluster1+5+6-GCN4 without …; assay: ELISA signal over HTRF expression signal, HEK293F; the reference itself
[4] = target: T1, H1-mini2-cluster1+5+6-GCN4 without …; assay: ELISA signal over HTRF expression signal, HEK293F; average of the parental
[5] = target: T1, H1-mini2-cluster1+5+6-GCN4 without …; assay: ELISA signal over HTRF expression signal, P. pastoris; the reference itself
[6] = target: T1, H1-mini2-cluster1+5+6-GCN4 without …; assay: ELISA signal over HTRF expression signal, P. pastoris; average of the parental

B1: CR6261 (antibody, V domains shown)
VH: EVQLVESGAEVKKPGSSVKVSCKASGGPFRSYAISWVRQAPGQGPEWMGGIIPIFGTTKYAPKFQGRVTITADDFAGTVYMELSSLRSEDTAMYYCAKHMGYQVRETMDVWGKGTTVTVSS
VL: QSVLTQPPSVSAAPGQKVTISCSGSSSNIGNDYVSWYQQLPGTAPKLLIYDNNKRPSGIPDRFSGSKSGTSATLGITGLQTGDEANYYCATWDRRPTAYVVFGGGTKLTVLG
- CR6261 binding signal (10F9): 166000
- CR6261 binding signal (11B4): 166000
- CR6261 binding signal (11F4): 151000
- CR6261 binding signal (1F2): 149000
- CR6261 binding signal (29C2): 178000
- CR6261 binding signal (36D6): 71300
- CR6261 binding signal (36H2): 171000
- CR6261 binding signal (51G10): 215000
- CR6261 binding signal (56D2): 146000
- CR6261 binding signal (56F4): 186000
- CR6261 binding signal (56F8): 235000
- CR6261 binding signal (58A11): 53300
- CR6261 binding signal (60A2): 92700
- CR6261 binding signal (63C3): 188000
- CR6261 binding signal (63D3): 146000
- CR6261 binding signal (66C8): 185000
- CR6261 binding signal (6A1): 300000
- CR6261 binding signal (70F6): 419000
- CR6261 binding signal (71E7): 203000
- CR6261 binding signal (74D7): 359000
- CR6261 binding signal (75E9): 135000
- CR6261 binding signal (75G5): 1.01e+06
- CR6261 binding signal (75H8): 103000
- CR6261 binding signal (76A10): 137000
- CR6261 binding signal (76D10): 114000
- CR6261 binding signal (79C2): 364000
- CR6261 binding signal (7D9): 77800
- CR6261 binding signal (81F11): 318000
- CR6261 binding signal (84E10): 255000
- CR6261 binding signal 850: 196000
- CR6261 binding signal (86F1): 159000
- CR6261 binding signal (86G2): 69700
- CR6261 binding signal (86H9): 457000
- CR6261 binding signal (88C5): 471000
- CR6261 binding signal (9C10): 114000
- CR6261 binding signal (9C6): 271000
- fold increase of ratio over parental SEQ ID NO: 6 (79F8): 2.64
- ratio (binding signal/HTRF signal) (79F8): 15.7
- fold increase of ratio over parental SEQ ID NO: 6 (84B8): 9.71
- ratio (binding signal/HTRF signal) (84B8): 57.7
- CR6261 binding signal [1]: 5.66e+06
- CR6261 binding signal [2]: 238000
- fold increase of ratio over parental SEQ ID NO: 6 [3]: 1
- ratio (binding signal/HTRF signal) [4]: 17.4
- fold increase of ratio over parental SEQ ID NO: 6 [5]: 1
- ratio (binding signal/HTRF signal) [6]: 5.94
